These results are taken from patent US20180340159.

For this series, the target named is T1, propeptide of Rhizomucor miehei lipase (RmL).
T1 chain: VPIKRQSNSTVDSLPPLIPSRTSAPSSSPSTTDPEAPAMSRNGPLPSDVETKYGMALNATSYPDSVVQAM

B1: Rhizomucor miehei lipase (RmL) wild type mature protein (protein)
chain: SIDGGIRAATSQEINELTYYTTLSANSYCRTVIPGATWDCIHCDATEDLKIIKTWSTLIYDTNAMVARGDSEKTIYIVFRGSSSIRNWIADLTFVPVSYPPVSGTKVHKGFLDSYGEVQNELVATVLDQFKQYPSYKVAVTGHSLGGATALLCALDLYQREEGLSSSNLFLYTQGQPRVGDPAFANYVVSTGIPYRRTVNERDIVPHLPPAAFGFLHAGEEYWITDNSPETVQVCTSDLETSDCSNSIVPFTSVLDHLSYFGINTGLCT
In the case of B1, the lipase hydrolytic activity (4-MU oleate), average slope; incubated with 5 µM TCEP turned out to be 22 RFU/sec; the lipase hydrolytic activity (4-MU oleate), average slope; incubated with 5 uM TCEP + Model B is 66 RFU/sec; the lipase hydrolytic activity (4-MU oleate), average slope; incubated with 1.35% Savinase + Model B is 143 RFU/sec; the lipase hydrolytic activity (4-MU oleate), average slope; incubated with 2% NaSO2 stood at 28 RFU/sec. In addition, the lipase hydrolytic activity (4-MU oleate), average slope; incubated with 2% NaSO2 + Model B is 66 RFU/sec.
